Consider one protein from publication PMC6978305, “Formation of S. pombe Erh1 homodimer mediates gametogenic gene silencing and meiosis progression” (Scientific Reports, 2020).

The data set concerns the molecule itself. Put plainly: SEC-MALS; SEC-MALLS of purified recombinant proteins in solution. For orientation: SEC sorts molecules by how far they enter the pores of the column.

B1: S. pombe Erh1, wild type, recombinant (natural protein, UniProt G2TRN4 1-104, looked up)
chain: MSPPPAESHIILLIQQGSDPKTRIWSDHCSLRSAIEYIVGVYQTNQAVSEKESIDVSRFFNFFDEIYDCVPLVYDRHFRAYIPHEKQWLLHHAQEYLTAARQIP
notes: Erh1, S. pombe, full length, from plasmid pMG921 (pGEX-6P1); After 3C cleavage some residues of the N-terminal tag remain (4 of them are seen in protomer B of the crystal structure); also called wild-type Erh1; apo-Erh1; source: E. coli BL21 (DE3) Codon+, purified (GSH-sepharose, 3C cleavage, Superdex 75); not shown: GST, N-terminal, cleaved
Take B1: the “stoichiometry N” value was found to be 2.

As usually defined, the stoichiometry N is the number of molecules, sites or subunits per partner or assembly.
